Data on one substance can be found in doi:10.1101/2024.10.14.618152.

The experiment has as its target Zt-KP4-1 (Zt-NIP1) (Zymoseptoria tritici). As to the kind of experiment: SEC. (In gel filtration, larger molecules generally elute earlier.)

Consider Zt-KP4-1 (Zt-NIP1) (natural protein), for which the stoichiometry N worked out at 2.

Broadly, the stoichiometry N is a count of units in the complex or per binding partner.
